Test results as given in paper PMC2756588.

biological target: T1, Bzz1-2, P38822; assay: SPOT array; conditions: median of control spots 4538
T1 sequence (P38822 568-633, looked up): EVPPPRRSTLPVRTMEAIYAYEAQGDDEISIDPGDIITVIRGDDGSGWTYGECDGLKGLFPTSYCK

Binder | SPOT intensity
NFLRLLIGLPSQNEL | 0
NNQRRKPLLLNIGDH | 5
NHSRSLFSLPGNQQS | 19
NPNRRAPRRPLSTQH | 56

biological target: T2, Nbp2, Q12163; assay: SPOT array; conditions: median of control spots 357
T2 sequence (Q12163 103-180, looked up): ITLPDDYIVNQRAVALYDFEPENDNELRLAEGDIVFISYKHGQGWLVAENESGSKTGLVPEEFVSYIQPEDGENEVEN

Binder | SPOT intensity
NFLRLLIGLPSQNEL | 84
NNQRRKPLLLNIGDH | 42
NHSRSLFSLPGNQQS | 77
NPNRRAPRRPLSTQH | 626

biological target: T3, Fus1, P11710; assay: SPOT array; conditions: median of control spots 1200
T3 sequence (P11710 432-512, looked up): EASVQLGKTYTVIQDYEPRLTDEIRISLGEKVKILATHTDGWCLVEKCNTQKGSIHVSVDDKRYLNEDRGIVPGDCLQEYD

Binder | SPOT intensity
NFLRLLIGLPSQNEL | 243
NNQRRKPLLLNIGDH | 28
NHSRSLFSLPGNQQS | 653
NPNRRAPRRPLSTQH | 59

biological target: Bem1-1, P29366; assay: SPOT array; conditions: median of control spots 4282
Sequence (P29366 55-141): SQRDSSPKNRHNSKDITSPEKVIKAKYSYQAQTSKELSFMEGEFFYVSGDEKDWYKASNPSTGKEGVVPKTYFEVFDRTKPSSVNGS

Binder | SPOT intensity
NFLRLLIGLPSQNEL | 1
NNQRRKPLLLNIGDH | 0
NHSRSLFSLPGNQQS | 3
NPNRRAPRRPLSTQH | 3

biological target: Sho1, P40073; assay: SPOT array; conditions: median of control spots 1148
Sequence (P40073 287-367): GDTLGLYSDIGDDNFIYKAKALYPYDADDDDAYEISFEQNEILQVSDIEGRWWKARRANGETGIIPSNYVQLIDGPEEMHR

Binder | SPOT intensity
NFLRLLIGLPSQNEL | 93
NNQRRKPLLLNIGDH | 79
NHSRSLFSLPGNQQS | 141
NPNRRAPRRPLSTQH | 267

biological target: T4, Hse1, P38753; assay: SPOT array; conditions: median of control spots 1727
T4 sequence (P38753 208-285, looked up): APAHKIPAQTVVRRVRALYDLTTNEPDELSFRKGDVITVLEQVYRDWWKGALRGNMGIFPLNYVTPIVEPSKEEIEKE

Binder | SPOT intensity
NFLRLLIGLPSQNEL | 10
NNQRRKPLLLNIGDH | 50
NHSRSLFSLPGNQQS | 114
NPNRRAPRRPLSTQH | 113

biological target: T5, Boi1, P38041; assay: SPOT array; conditions: median of control spots 1162
T5 sequence (P38041 1-86, looked up): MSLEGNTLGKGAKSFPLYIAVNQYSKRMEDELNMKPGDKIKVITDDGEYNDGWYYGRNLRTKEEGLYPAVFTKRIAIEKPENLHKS

Binder | SPOT intensity
NFLRLLIGLPSQNEL | 122
NNQRRKPLLLNIGDH | 5
NHSRSLFSLPGNQQS | 7
NPNRRAPRRPLSTQH | 28

biological target: T6, Cdc25, P04821; assay: SPOT array; conditions: median of control spots 969
T6 sequence (P04821 50-136, looked up): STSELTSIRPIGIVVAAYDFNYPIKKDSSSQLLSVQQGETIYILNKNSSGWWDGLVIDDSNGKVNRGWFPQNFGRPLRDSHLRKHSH

Binder | SPOT intensity
NFLRLLIGLPSQNEL | 354
NNQRRKPLLLNIGDH | 216
NHSRSLFSLPGNQQS | 333
NPNRRAPRRPLSTQH | 221

biological target: T7, Boi2, P39969; assay: SPOT array; conditions: median of control spots 1161
T7 sequence (P39969 32-116, looked up): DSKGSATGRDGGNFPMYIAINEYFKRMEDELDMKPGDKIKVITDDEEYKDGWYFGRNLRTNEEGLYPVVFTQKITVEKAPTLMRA

Binder | SPOT intensity
NFLRLLIGLPSQNEL | 6
NNQRRKPLLLNIGDH | 1
NHSRSLFSLPGNQQS | 2
NPNRRAPRRPLSTQH | 0

biological target: GST; assay: SPOT array; conditions: median of control spots 978

Binder | SPOT intensity
NFLRLLIGLPSQNEL | 0
NNQRRKPLLLNIGDH | 0
NHSRSLFSLPGNQQS | 2
NPNRRAPRRPLSTQH | 0

biological target: T8, Bzz1-1, P38822; assay: SPOT array; conditions: median of control spots 4446
T8 sequence (P38822 478-572, looked up): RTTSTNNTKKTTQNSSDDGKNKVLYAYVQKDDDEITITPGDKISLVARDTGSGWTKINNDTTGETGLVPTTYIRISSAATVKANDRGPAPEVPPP

Binder | SPOT intensity
NFLRLLIGLPSQNEL | 2
NNQRRKPLLLNIGDH | 0
NHSRSLFSLPGNQQS | 2
NPNRRAPRRPLSTQH | 0

biological target: T9, Cyk3, Q07533; assay: SPOT array; conditions: median of control spots 1451
T9 sequence (Q07533 1-83, looked up): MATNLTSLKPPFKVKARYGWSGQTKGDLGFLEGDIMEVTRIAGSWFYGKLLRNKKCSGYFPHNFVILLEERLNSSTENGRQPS

Binder | SPOT intensity
NFLRLLIGLPSQNEL | 9
NNQRRKPLLLNIGDH | 1
NHSRSLFSLPGNQQS | 0
NPNRRAPRRPLSTQH | 3

biological target: T10, Lsb3, P43603; assay: SPOT array; conditions: median of control spots 406
T10 sequence (P43603 385-451, looked up): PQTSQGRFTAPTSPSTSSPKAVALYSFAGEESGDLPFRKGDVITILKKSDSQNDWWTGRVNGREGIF

Binder | SPOT intensity
NFLRLLIGLPSQNEL | 0
NNQRRKPLLLNIGDH | 0
NHSRSLFSLPGNQQS | 0
NPNRRAPRRPLSTQH | 2

biological target: Bem1-2, P29366; assay: SPOT array; conditions: median of control spots 4347
Sequence (P29366 139-227): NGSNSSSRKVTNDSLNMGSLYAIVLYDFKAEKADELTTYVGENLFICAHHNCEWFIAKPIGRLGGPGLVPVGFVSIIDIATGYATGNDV

Binder | SPOT intensity
NFLRLLIGLPSQNEL | 0
NNQRRKPLLLNIGDH | 25
NHSRSLFSLPGNQQS | 353
NPNRRAPRRPLSTQH | 476

biological target: T11, Pin3, Q06449; assay: SPOT array; conditions: median of control spots 2171
T11 sequence (Q06449 53-122, looked up): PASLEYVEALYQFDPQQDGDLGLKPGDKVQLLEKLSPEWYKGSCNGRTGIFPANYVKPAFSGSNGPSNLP

Binder | SPOT intensity
NFLRLLIGLPSQNEL | 15
NNQRRKPLLLNIGDH | 0
NHSRSLFSLPGNQQS | 16
NPNRRAPRRPLSTQH | 4

biological target: T12, Lsb1, P53281; assay: SPOT array; conditions: median of control spots 388
T12 sequence (P53281 45-122, looked up): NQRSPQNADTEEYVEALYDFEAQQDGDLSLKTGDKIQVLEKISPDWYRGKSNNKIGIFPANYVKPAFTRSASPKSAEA

Binder | SPOT intensity
NFLRLLIGLPSQNEL | 2
NNQRRKPLLLNIGDH | 0
NHSRSLFSLPGNQQS | 46
NPNRRAPRRPLSTQH | 52

biological target: T13, Bbc1, P47068; assay: SPOT array; conditions: median of control spots 796
T13 sequence (P47068 1-78, looked up): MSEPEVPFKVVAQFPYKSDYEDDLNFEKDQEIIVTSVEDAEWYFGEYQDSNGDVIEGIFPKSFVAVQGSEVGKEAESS

Binder | SPOT intensity
NFLRLLIGLPSQNEL | 156
NNQRRKPLLLNIGDH | 11
NHSRSLFSLPGNQQS | 35
NPNRRAPRRPLSTQH | 294

biological target: T14, Lsb4, P32793; assay: SPOT array; conditions: median of control spots 397
T14 sequence (P32793 402-468, looked up): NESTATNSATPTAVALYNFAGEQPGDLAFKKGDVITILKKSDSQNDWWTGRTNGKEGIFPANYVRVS

Binder | SPOT intensity
NFLRLLIGLPSQNEL | 0
NNQRRKPLLLNIGDH | 0
NHSRSLFSLPGNQQS | 0
NPNRRAPRRPLSTQH | 18

biological target: T15, Sla1-3, P32790; assay: SPOT array; conditions: median of control spots 5475
T15 sequence (P32790 344-424, looked up): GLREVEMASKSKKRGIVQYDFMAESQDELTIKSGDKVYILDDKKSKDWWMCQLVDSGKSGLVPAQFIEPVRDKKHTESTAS

Binder | SPOT intensity
NFLRLLIGLPSQNEL | 0
NNQRRKPLLLNIGDH | 138
NHSRSLFSLPGNQQS | 124
NPNRRAPRRPLSTQH | 607

biological target: T16, Pex13, P80667; assay: SPOT array; conditions: median of control spots 1341
T16 sequence (P80667 295-386, looked up): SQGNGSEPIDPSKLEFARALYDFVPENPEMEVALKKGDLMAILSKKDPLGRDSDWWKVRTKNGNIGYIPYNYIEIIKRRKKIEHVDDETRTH

Binder | SPOT intensity
NFLRLLIGLPSQNEL | 47
NNQRRKPLLLNIGDH | 0
NHSRSLFSLPGNQQS | 36
NPNRRAPRRPLSTQH | 27

biological target: T17, Bud14, P27637; assay: SPOT array; conditions: median of control spots 956
T17 sequence (P27637 247-328, looked up): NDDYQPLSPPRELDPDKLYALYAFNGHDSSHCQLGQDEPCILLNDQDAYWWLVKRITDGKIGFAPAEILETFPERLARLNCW

Binder | SPOT intensity
NFLRLLIGLPSQNEL | 22
NNQRRKPLLLNIGDH | 17
NHSRSLFSLPGNQQS | 7
NPNRRAPRRPLSTQH | 17

biological target: T18, Sla1-2, P32790; assay: SPOT array; conditions: median of control spots 712
T18 sequence (P32790 60-140, looked up): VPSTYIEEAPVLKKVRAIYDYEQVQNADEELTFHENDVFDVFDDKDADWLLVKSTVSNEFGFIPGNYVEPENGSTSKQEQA

Binder | SPOT intensity
NFLRLLIGLPSQNEL | 0
NNQRRKPLLLNIGDH | 0
NHSRSLFSLPGNQQS | 1
NPNRRAPRRPLSTQH | 4

biological target: T19, Hof1, Q05080; assay: SPOT array; conditions: median of control spots 4086
T19 sequence (Q05080 590-669, looked up): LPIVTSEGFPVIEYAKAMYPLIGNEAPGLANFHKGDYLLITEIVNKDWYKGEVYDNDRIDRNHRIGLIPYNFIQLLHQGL

Binder | SPOT intensity
NFLRLLIGLPSQNEL | 3
NNQRRKPLLLNIGDH | 18
NHSRSLFSLPGNQQS | 364
NPNRRAPRRPLSTQH | 70

biological target: Rvs167, P39743; assay: SPOT array; conditions: median of control spots 2707
Sequence (P39743 419-482): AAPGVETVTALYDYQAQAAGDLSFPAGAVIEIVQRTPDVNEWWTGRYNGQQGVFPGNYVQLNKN

Binder | SPOT intensity
NFLRLLIGLPSQNEL | 0
NNQRRKPLLLNIGDH | 0
NHSRSLFSLPGNQQS | 0
NPNRRAPRRPLSTQH | 0

biological target: T20, Myo5, Q04439; assay: SPOT array; conditions: median of control spots 471
T20 sequence (Q04439 1072-1160, looked up): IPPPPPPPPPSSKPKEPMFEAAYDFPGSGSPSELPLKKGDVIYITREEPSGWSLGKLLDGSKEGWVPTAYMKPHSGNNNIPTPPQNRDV

Binder | SPOT intensity
NFLRLLIGLPSQNEL | 0
NNQRRKPLLLNIGDH | 0
NHSRSLFSLPGNQQS | 1
NPNRRAPRRPLSTQH | 0

biological target: Myo3, P36006; assay: SPOT array; conditions: median of control spots 468

Binder | SPOT intensity
NFLRLLIGLPSQNEL | 10
NNQRRKPLLLNIGDH | 0
NHSRSLFSLPGNQQS | 13
NPNRRAPRRPLSTQH | 46

biological target: T21, Abp1, P15891; assay: SPOT array; conditions: median of control spots 935
T21 sequence (P15891 535-592, looked up): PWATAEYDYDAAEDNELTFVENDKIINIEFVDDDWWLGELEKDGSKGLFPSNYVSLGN

Binder | SPOT intensity
NFLRLLIGLPSQNEL | 55
NNQRRKPLLLNIGDH | 56
NHSRSLFSLPGNQQS | 53
NPNRRAPRRPLSTQH | 151
